First the molecules themselves.
B1: ZAP122m1 Fab (Fab, V domains shown)
VH: QVQLQESGPGLVKPSETLSLTCTVSGGSISSDFWGWIRQPPGKGLEWIGYISSRGSTNYNPSLKRRVTISVDTSRNQFSLKLSSVTAADTAVYYCARSAGVTDFDFWGQGTLVTVSS
VL: DIQMTQSPSSVSASVGDRVTITCRASQGISSWLAWYYHKPGKAPKLLIYVASSLQSGVPSRFSGSGSGTDFTLTISSLQPEDFATYYCQQANSFPLTFGGGTKVEIK
notes: Fab
B2: ZAP122m13 Fab (Fab, V domains shown)
VH: QVQLQESGPGLVKPSETLSLTCTVSGGSISSDYWGWIRQPPGKGLEWIGYISSRGSTNYNPSLKRRVTISVDTSRNQFSLKLSSVTAADTAVYYCARSAGVTDFDFWGQGTLVTVSS
VL: DIQMTQSPSSVSASVGDRVTITCRASQGISSWLAWYQHKPGKAPKLLIYVASSLQSGVPSRFSGSGSGTDFTLTISSLQPEDFATYYCQQANSFPLTFGGGTKVEIK
notes: Fab
B3: ZAP122m10 Fab (Fab, V domains shown)
VH: QVQLQESGPGLVKPSETLSLTCTVSGGSISSDFWGWIRQPPGKGLEWIGYISSRGSTNYNPSLKRRVTISVDTSRNQFSLKLSSVTAADTAVYYCARSAGVTDFDFWGQGTLVTVSS
VL: DIQMTQSPSSVSASVGDRVTITCRASQGISSWLAWYQHKPGKAPKLLIYVASSLQSGVPSRFSGSGSGTDFTLTISSLQPEDFATYYCQQANSFPATFGGGTKVEIK
notes: Fab
B4: ZAP122m7 Fab (Fab, V domains shown)
VH: QVQLQESGPGLVKPSETLSLTCTVSGGSISSDFWGWIRQPPGKGLEWIGYISSRGSTNYNPSLKRRVTISVDTSRNQFSLKLSSVTAADTAVYYCARSAGVTDFDFWGQGTLVTVSS
VL: DIQMTQSPSSVSASVGDRVTITCRASQGISSWLAWYQHKPGKAPKLLIYVASSLQSGVPSRFSGSGSGTDFTLTISSLQPEDFATYYCQQANAFPLTFGGGTKVEIK
notes: Fab
B5: ZAP122m18 Fab (Fab, V domains shown)
VH: QVQLQESGPGLVKPSETLSLTCTVSGGSISSDFWGWIRQPPGKGLEWIGYISSRGSTNYNPSLKSRVTISVDTSRNQFSLKLSSVTAADTAVYYCARSAGVTDFDFWGQGTLVTVSS
VL: DIQMTQSPSSVSASVGDRVTITCRASQGISSWLAWYQHKPGKAPKLLIYVASSLQSGVPSRFSGSGSGTDFTLTISSLQPEDFATYYCQQANSFPLTFGGGTKVEIK
notes: Fab; also called clone m18
B6: ZAP122m2 Fab (Fab, V domains shown)
VH: QVQLQESGPGLVKPSETLSLTCTVSGGSISSDFWGWIRQPPGKGLEWIGYISSRGSTNYNPSLKRRVTISVDTSKNQFSLKLSSVTAADTAVYYCARSAGVTDFDFWGQGTLVTVSS
VL: DIQMTQSPSSVSASVGDRVTITCRASQGISSWLAWYQHKPGKAPKLLIYVASSLQSGVPSRFSGSGSGTDFTLTISSLQPEDFATYYCQQANSFPLTFGGGTKVEIK
notes: Fab
B7: ZAP122m11 Fab (Fab, V domains shown)
VH: QVQLQESGPGLVKPSETLSLTCTVSGGSISSDFWGWIRQPPGKGLEWIGYISSRGSTNYNPSLKRRVTISVDTSRNQFSLKLSSVTAADTAVYYCARSAGVTDFDFWGQGTLVTVSS
VL: DIQMTQSPSSVSASVGDRVTITCRASQGISSWLAWYQHKPGKAPKLLIYVASSLQSGVPSRFSGSGSGTDFTLTISSLQPEDFATYYCQQANSFPLAFGGGTKVEIK
notes: Fab
B8: ZAP122m15 Fab (Fab, V domains shown)
VH: QVQLQESGPGLVKPSETLSLTCTVSGGSISSDFWGWIRQPPGKGLEWIGYIYSRGSTNYNPSLKRRVTISVDTSRNQFSLKLSSVTAADTAVYYCARSAGVTDFDFWGQGTLVTVSS
VL: DIQMTQSPSSVSASVGDRVTITCRASQGISSWLAWYQHKPGKAPKLLIYVASSLQSGVPSRFSGSGSGTDFTLTISSLQPEDFATYYCQQANSFPLTFGGGTKVEIK
notes: Fab
B9: ZAP122m14 Fab (Fab, V domains shown)
VH: QVQLQESGPGLVKPSETLSLTCTVSGGSISSDFWSWIRQPPGKGLEWIGYISSRGSTNYNPSLKRRVTISVDTSRNQFSLKLSSVTAADTAVYYCARSAGVTDFDFWGQGTLVTVSS
VL: DIQMTQSPSSVSASVGDRVTITCRASQGISSWLAWYQHKPGKAPKLLIYVASSLQSGVPSRFSGSGSGTDFTLTISSLQPEDFATYYCQQANSFPLTFGGGTKVEIK
notes: Fab
B10: ZAP122m5 Fab (Fab, V domains shown)
VH: QVQLQESGPGLVKPSETLSLTCTVSGGSISSDFWGWIRQPPGKGLEWIGYISSRGSTNYNPSLKRRVTISVDTSRNQFSLKLSSVTAADTAVYYCARSAGVTDFDFWGQGTLVTVSS
VL: DIQMTQSPSSVSASVGDRVTITCRASQGISSWLAWYQHKPGKAPKLLIYVASSLQSGVPSRFSGSGSGTDFTLTISSLQPEDFATYYCQAANSFPLTFGGGTKVEIK
notes: Fab
B11: ZAP122m3 Fab (Fab, V domains shown)
VH: QVQLQESGPGLVKPSETLSLTCTVSGGSISSDFWGWIRQPPGKGLEWIGYISSRGSTNYNPSLKRRVTISVDTSRNQFSLKLSSVTAADTAVYYCARSAGVTDFDFWGQGTLVTVSS
VL: DIQMTQSPSSVSASVGDRVTITCRASQGISSWLAWYQHKPGKAPKLLIYAASSLQSGVPSRFSGSGSGTDFTLTISSLQPEDFATYYCQQANSFPLTFGGGTKVEIK
notes: Fab
B12: ZAP122m12 Fab (Fab, V domains shown)
VH: QVQLQESGPGLVKPSETLSLTCTVSGGSISSYFWGWIRQPPGKGLEWIGYISSRGSTNYNPSLKRRVTISVDTSRNQFSLKLSSVTAADTAVYYCARSAGVTDFDFWGQGTLVTVSS
VL: DIQMTQSPSSVSASVGDRVTITCRASQGISSWLAWYQHKPGKAPKLLIYVASSLQSGVPSRFSGSGSGTDFTLTISSLQPEDFATYYCQQANSFPLTFGGGTKVEIK
notes: Fab
B13: ZAP122m8 Fab (Fab, V domains shown)
VH: QVQLQESGPGLVKPSETLSLTCTVSGGSISSDFWGWIRQPPGKGLEWIGYISSRGSTNYNPSLKRRVTISVDTSRNQFSLKLSSVTAADTAVYYCARSAGVTDFDFWGQGTLVTVSS
VL: DIQMTQSPSSVSASVGDRVTITCRASQGISSWLAWYQHKPGKAPKLLIYVASSLQSGVPSRFSGSGSGTDFTLTISSLQPEDFATYYCQQANSAPLTFGGGTKVEIK
notes: Fab
B14: ZAP122m16 Fab (Fab, V domains shown)
VH: QVQLQESGPGLVKPSETLSLTCTVSGGSISSDFWGWIRQPPGKGLEWIGYISYRGSTNYNPSLKRRVTISVDTSRNQFSLKLSSVTAADTAVYYCARSAGVTDFDFWGQGTLVTVSS
VL: DIQMTQSPSSVSASVGDRVTITCRASQGISSWLAWYQHKPGKAPKLLIYVASSLQSGVPSRFSGSGSGTDFTLTISSLQPEDFATYYCQQANSFPLTFGGGTKVEIK
notes: Fab
B15: ZAP122m4 Fab (Fab, V domains shown)
VH: QVQLQESGPGLVKPSETLSLTCTVSGGSISSDFWGWIRQPPGKGLEWIGYISSRGSTNYNPSLKRRVTISVDTSRNQFSLKLSSVTAADTAVYYCARSAGVTDFDFWGQGTLVTVSS
VL: DIQMTQSPSSVSASVGDRVTITCRASQGISSWLAWYQHKPGKAPKLLIYVASSLQSGVPSRFSGSGSGTDFTLTISSLQPEDFATYYCAQANSFPLTFGGGTKVEIK
notes: Fab
B16: ZAP122m6 Fab (Fab, V domains shown)
VH: QVQLQESGPGLVKPSETLSLTCTVSGGSISSDFWGWIRQPPGKGLEWIGYISSRGSTNYNPSLKRRVTISVDTSRNQFSLKLSSVTAADTAVYYCARSAGVTDFDFWGQGTLVTVSS
VL: DIQMTQSPSSVSASVGDRVTITCRASQGISSWLAWYQHKPGKAPKLLIYVASSLQSGVPSRFSGSGSGTDFTLTISSLQPEDFATYYCQQAASFPLTFGGGTKVEIK
notes: Fab
B17: ZAP122m9 Fab (Fab, V domains shown)
VH: QVQLQESGPGLVKPSETLSLTCTVSGGSISSDFWGWIRQPPGKGLEWIGYISSRGSTNYNPSLKRRVTISVDTSRNQFSLKLSSVTAADTAVYYCARSAGVTDFDFWGQGTLVTVSS
VL: DIQMTQSPSSVSASVGDRVTITCRASQGISSWLAWYQHKPGKAPKLLIYVASSLQSGVPSRFSGSGSGTDFTLTISSLQPEDFATYYCQQANSFALTFGGGTKVEIK
notes: Fab
B18: ZAP122m17 Fab (Fab, V domains shown)
VH: QVQLQESGPGLVKPSETLSLTCTVSGGSISSDFWGWIRQPPGKGLEWIGYISSSGSTNYNPSLKRRVTISVDTSRNQFSLKLSSVTAADTAVYYCARSAGVTDFDFWGQGTLVTVSS
VL: DIQMTQSPSSVSASVGDRVTITCRASQGISSWLAWYQHKPGKAPKLLIYVASSLQSGVPSRFSGSGSGTDFTLTISSLQPEDFATYYCQQANSFPLTFGGGTKVEIK
notes: Fab; also called clone m17

The values below come from EP4671273A1 (Anaveon AG, dated 2025).

In this experiment the target is T1, Recombinant hIL-21-Fc (AcroBiosystems) (human, UniProt Q9HBE4 30-162).
T1 construct: bought; also called rhIL-21; not shown: Fc of the bought reagent, not described
T1 sequence (Q9HBE4 30-162): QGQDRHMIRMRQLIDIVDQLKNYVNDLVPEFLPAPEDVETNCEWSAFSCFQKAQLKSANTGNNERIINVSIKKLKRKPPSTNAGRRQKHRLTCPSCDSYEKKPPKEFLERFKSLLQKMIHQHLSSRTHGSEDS
The experiment is described as follows: SPR, Fab on captured rhIL-21-Fc. (SPR reads the build-up and loss of mass on a sensor chip optically.)
By Kd is commonly meant the constant that tells how readily two partners part at equilibrium. Usually koff stands for the first-order rate constant of dissociation. Broadly, the kon is the second-order rate constant of association. Regarding B1, the Kd was 0.0517 nM, the koff turned out to be 1.91e-05 s⁻¹ and the kon is 369000 M⁻¹ s⁻¹.

B2: the Kd stood at 0.0565 nM, the koff is 1.78e-05 s⁻¹ and the kon was 316000 M⁻¹ s⁻¹.

On to B3, for which the Kd was 2.4 nM, the koff was determined as 0.000613 s⁻¹ and the kon worked out at 256000 M⁻¹ s⁻¹.

As for B4, the Kd is < 0.0258 nM, the koff was < 1e-05 s⁻¹ and the kon was determined as 387000 M⁻¹ s⁻¹.

B5: the dissociation constant (Kd) is 0.0463 nM, the koff was 1.4e-05 s⁻¹ and the kon amounted to 302000 M⁻¹ s⁻¹.

For the molecule B6, the dissociation constant (Kd) came out at 0.034 nM, the koff amounted to 1.23e-05 s⁻¹ and the on-rate (kon) came to 363000 M⁻¹ s⁻¹.

With B7, the Kd was found to be 0.0404 nM, the koff came to 1.46e-05 s⁻¹ and the association rate constant (kon) came out at 363000 M⁻¹ s⁻¹.

B8: the Kd was < 0.0174 nM, the koff is < 1e-05 s⁻¹ and the kon worked out at 574000 M⁻¹ s⁻¹.

B9: the Kd came to 1.01 nM, the koff worked out at 0.000263 s⁻¹ and the kon was determined as 260000 M⁻¹ s⁻¹.

As to B10, the Kd is ≤ 0.088 nM, the dissociation rate constant (koff) was ≤ 1e-05 s⁻¹ and the kon is 114000 M⁻¹ s⁻¹.

Turning to B11, the Kd amounted to 0.251 nM, the koff came out at 9.3e-05 s⁻¹ and the kon amounted to 370000 M⁻¹ s⁻¹.

Take B12: the Kd amounted to 8.83 nM, the koff was 0.00424 s⁻¹ and the kon was determined as 481000 M⁻¹ s⁻¹.

Regarding B13, the Kd was found to be 9.49 nM, the koff turned out to be 0.00251 s⁻¹ and the kon worked out at 264000 M⁻¹ s⁻¹.

As for B14, the Kd is < 0.0283 nM, the koff is < 1e-05 s⁻¹ and the kon came out at 353000 M⁻¹ s⁻¹.

Consider B15, for which the Kd turned out to be 3.49 nM, the dissociation rate constant (koff) was determined as 0.000253 s⁻¹ and the kon was 72400 M⁻¹ s⁻¹.

On to B16, for which the Kd was found to be 0.0379 nM, the koff turned out to be 1.43e-05 s⁻¹ and the kon is 379000 M⁻¹ s⁻¹.

Regarding B17, the Kd was determined as 0.249 nM, the koff is 5.93e-05 s⁻¹ and the kon amounted to 238000 M⁻¹ s⁻¹.

In the case of B18, the dissociation constant (Kd) came out at 0.0842 nM, the koff amounted to 2.81e-05 s⁻¹ and the kon is 334000 M⁻¹ s⁻¹.
